Test results as given in US6153740A, “cDNA encoding nucleoside transporter” (University of Alberta, priority 1997, dated 2000).

Assays:
[1] = substrate: O=c1ccn([C@@H]2O[C@H](CO)[C@@H](O)[C@H]2O)c(=O)[nH]1; assay: cells, lysate or membranes; conditions: other: rat CNT1, 20° C., pH 7.5
[2] = substrate: Nc1ccn([C@H]2CC[C@@H](CO)O2)c(=O)n1; assay: uptake/influx of radiolabelled nucleosides in Xenopus oocytes injected with pQQH1 (rat CNT1) cRNA; type: cell-based; conditions: other: rate versus concentration studies, pH 7.5, 20.0 °C
Description: Oocytes were injected with water or RNA transcribed in vitro from the nucleoside transporter cDNA (pQQH1). Each value represents the mean ±S.E. of 8-10 oocytes. […] Apparent Km and Vmax values were determined by non-linear regression analysis (ENZFITTER, Elsevier-Biosoft). […] Panel d: thymidine transport in oocytes injected with pQQH1 cRNA. For panels c and d, the permeant concentration was 10 μM and competing nonradioactive nucleosides were present at a concentration of 1 mM. Fluxes were not corrected for the small (<0.1%) contribution of endogenous activity. […]
Expression of cNT1 in Oocytes-Plasmid pQQH1 DNA was linearized with Xbal and transcribed with T7 polymerase in the presence of the m^7 GpppG cap using the MEGAscript (Ambion) transcription system. […] Nucleoside uptake was measured after 3 days and was traced with the respective ^3 H-labeled nucleoside (Moravek Biochemicals)(20 μC/ml), which was purified by high performance liquid chromatography before use. […] Individual oocytes were dissolved in 5% SDS for quantitation of oocyte-associated ^3 H by liquid scintillation counting (LS 6000 IC, Beckman).
Defolliculated oocytes (Huang et al. 1993) were injected with either 10 nl of water containing 10 ng RNA transcript or 10 nl of water alone. Nucleoside uptake was measured after 3 d and was traced with the respective [^3 H] or [^14 C]nucleoside (Moravek Biochemicals)(5 μC 3H/ml, 1 μC 14C/ml). […]

B1: CNT1 (Rattus norvegicus) (protein)
chain: MADNTQRQRESISLTPMAHGLENMGAEFLESMEEGRLPHSHSSLPEGEGGLNKAERKAFSRWRSLQPTVQARSFCREHRQLFGWICKGLLSTACLGFLMVACLLDLQRALALLIITCVVLVFLAYDLLKRLLGSKLRRCVKFQGHSCLSLWLKRGLALAAGVGLILWLSLDTAQRPEQLVSFAGICVFLVLLFAGSKHHRAVSWRAVSWGLGLQFVLGLFVIRTEPGFIAFQWLGDQIQVFLSYTEAGSSFVFGEALVKDVFAFQVLPIIIFFSCVMSVLYYLGLMQWVILKIAWLMQVTMGTSATETLSVAGNIFVSQTEAPLLIRPYLADMTLSEVHVVMTGGYATIAGSLLGAYISFGIDAASLIAASVMAAPCALALSKLVYPEVEESKFRSENGVKLTYGDAQNLLEAASAGAAISVKVVANIAANLIAFLAVLAFVNAALSWLGDMVDIQGLSFQLICSYVLRPVAFLMGVAWEDCPVVAELLGIKFFLNEFVAYQELSQYKQRRLAGAEEWLGDKKQWISVRAEILTTYALCGFANFSSIGIMLGGLTSLVPQRRSDFSQIVLRALITGAFVSLLNACVAGILYVPRGVEVDCVSLLNQTVSSSSFEVYLCCRQVFQSTSSEFSQVALDNCCRFYNHTVCT
notes: identified as pQQH1, has an open reading frame encoding a 648-amino acid protein; expressed in transfected cells; host or cells: Xenopus oocytes injected with pQQH1 cRNA
In the case of B1, the Km [1] is reported as 37 µM and the Km [2] is reported as 0.51 mM.
